According to patent publication US20190248901A1 (NOVELOGICS BIOTECHNOLOGY, published 2019):

T1: recombinant extracellular alpha-3 domain of MICA (allele 001), His-tagged, Baculovirus/Sf9 expressed (human, UniProt Q29983 205-297)
T1 construct: also called MICA alpha-3 recombinant antigen; alpha-3 domain MICA immunogen
T1 sequence: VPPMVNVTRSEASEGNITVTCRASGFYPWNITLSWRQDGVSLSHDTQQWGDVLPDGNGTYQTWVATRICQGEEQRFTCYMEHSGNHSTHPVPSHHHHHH

B1: monoclonal antibody 5C9 (antibody, V domains shown)
VH: QVQLQQSGAELVRPGTSVKVSCKASGYAFTNYLIEWVKQRPGQGLEWIGLIYPGSGGTNYNEKFKGKATLTADKSSSTAYMQLSSLTSDDSAVYFCARIYYGNRDYGMDYWGQGTSVTVSS
VL: MTQTPLSLPVSLGDQASISCRSSQSIVHSNGNTYLEWYLQKPGQSPKLLIYKVSNRFSGVPDRFSGSGSGTDFTLKISRVEAEDLGVYYCFQGSHVPFTFGSGTKLEIK
notes: Mouse hybridoma antibody; Used as hybridoma supernatant in the screening and immunoprecipitation assays; also called mAb 5C9; antibody from hybridoma clone 5C9

What was measured:
[1] = target: recombinant extracellular alpha-3 domain of MICA (allele 001), His-tagged, Baculovirus/Sf9 expressed (human) (UniProt Q29983); assay: Bio-Layer Interferometry (Octet RED96), antibody captured by anti-mouse IgG, antigen in solution, pH 7.4, 1:1 model
[2] = target: soluble MICB (sMICB) shed from prostate cancer DU-145 cells (human) (UniProt Q29980); assay: subtractive immunoprecipitation from DU-145 conditioned medium with antibody on Protein G beads, remaining sMICB by MICB ELISA, against isotype controls
[3] = target: T1, recombinant extracellular alpha-3 …; assay: Bio-Layer Interferometry (Octet RED96), antibody captured by anti-mouse IgG, antigen in solution, pH 7.4, 1:1 model
Procedure: Biomolecular interactions between MICA alpha-3 recombinant antigen and test antibody were directly measured by Bio-Layer Interferometry (BLI) using a Pall ForteBio Octet RED96 machine (Pall ForteBio, CA, USA). Real-time kinetic analyses were performed on the test MICA monoclonal antibody 5C9, as well as two control antibodies, one of which could bind the alpha-3 MICA subdomain antigen (positive control) and one of which could not (negative control), as previously determined by ELISA. The Octet RED96 apparatus operates under the principle of Bio-Layer Interferometry, a label-free technique that measures molecular interactions and complex formation. A key component of the technique is the optical biosensor whose tip is immersed in the fluids of the test well and then used to assay interference patterns between waves of light. Here, the ligand (monoclonal antibody) is localized to the surface of the biosensor through capture by previously bound anti-mouse IgG, while the analyte biomolecule (antigen) is kept in solution. Binding responses between ligand and analyte were measured and reported in real-time. Both association and dissociation kinetics were monitored and KD values were calculated. This model assumed a 1:1 interaction of ligand to analyte.

soluble MICB (sMICB) shed from prostate cancer DU-145 cells (human), sequence (Q29980 23-309): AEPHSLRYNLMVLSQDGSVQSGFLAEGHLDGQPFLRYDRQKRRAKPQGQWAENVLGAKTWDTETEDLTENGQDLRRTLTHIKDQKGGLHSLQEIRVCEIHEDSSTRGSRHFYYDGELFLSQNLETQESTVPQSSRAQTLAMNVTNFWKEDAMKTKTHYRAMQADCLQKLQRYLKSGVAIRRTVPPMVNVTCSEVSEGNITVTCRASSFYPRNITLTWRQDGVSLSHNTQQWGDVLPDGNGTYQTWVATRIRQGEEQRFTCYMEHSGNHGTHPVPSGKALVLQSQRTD

| Kd [1] | reduction of the amount of sMICB in the sample [2] | Kd [3] | Molecule |
| --- | --- | --- | --- |
| 6 nM | 83% | – | BAMO3, MIC alpha-3 specific murine IgG2a monoclonal antibody (MBL International) |
| 9600 nM | – | – | negative control antibody of the Bio-Layer Interferometry analysis |
| – | – | ~3.3 nM | B1 |
